# Source: the Human Domainome abundance scans (Beltran et al. 2025)
# ± gives the uncertainty stated by the source.
# B1: Transcriptional regulator ERG, residues 117 to 197; numbered along this chain, P11308 (parent)
# chain: NMTTNERRVIVPADPTLWSTDHVRQWLEWAVKEYGLPDVNILLFQNIDGKELCKMTKDDFQRLTPSYNADILLSHLHYLRE
# Variants of: B1
# Experiment: abundance fitness (aPCA) (normalised: wild type 0, dead -1); higher = more abundant; growth selection in yeast, the domain comes from the species named
# Conditions: Homo sapiens
row,Variant,abundance fitness
1,NMTTNERRVIVPADPTLWSTDHVRQWLEWAVKEYGLPDVNILLFQNIDGKELCKMTKDDFDRLTPSYNADILLSHLHYLRE,-0.037 ± 0.12
2,NMTTNERRVIVPADPTLWSTDHVRQWLEWAVKEYGLPDVNILLFQNIDGKELCKMTKDDFNRLTPSYNADILLSHLHYLRE,-0.06 ± 0.09
3,NMTTNERRVIVPADPTLWSTDHVRQWLEWAVKEYGLPDVNILLFQNIDGKELCKMTKDDFKRLTPSYNADILLSHLHYLRE,0.044 ± 0.094
4,NMTTNERRVIVPADPTLWSTDHVRQWLEWAVKEYGLPDVNILLFQNIDGKELCKMTKDDFARLTPSYNADILLSHLHYLRE,0.011 ± 0.049
5,NMTTNERRVIVPADPTLWSTDHVRQWLEWAVKEYGLPDVNILLFQNIDGKELCKMTKDDFGRLTPSYNADILLSHLHYLRE,-0.021 ± 0.038
6,NMTTNERRVIVPADPTLWSTDHVRQWLEWAVKEYGLPDVNILLFQNIDGKELCKMTKDDFERLTPSYNADILLSHLHYLRE,0.056 ± 0.061
7,NMTTNERRVIVPADPTLWSTDHVRQWLEWAVKEYGLPDVNILLFQNIDGKELCKMTKDDFMRLTPSYNADILLSHLHYLRE,0.096 ± 0.076
8,NMTTNERRVIVPADPTLWSTDHVRQWLEWAVKEYGLPDVNILLFQNIDGKELCKMTKDDFIRLTPSYNADILLSHLHYLRE,0.193 ± 0.33
9,NMTTNERRVIVPADPTLWSTDHVRQWLEWAVKEYGLPDVNILLFQNIDGKELCKMTKDDFHRLTPSYNADILLSHLHYLRE,0.173 ± 0.11
10,NMTTNERRVIVPADPTLWSTDHVRQWLEWAVKEYGLPDVNILLFQNIDGKELCKMTKDDFCRLTPSYNADILLSHLHYLRE,-0.037 ± 0.079
11,NMTTNERRVIVPADPTLWSTDHVRQWLEWAVKEYGLPDVNILLFQNIDGKELCKMTKDDFFRLTPSYNADILLSHLHYLRE,-0.042 ± 0.15
12,NMTTNERRVIVPADPTLWSTDHVRQWLEWAVKEYGLPDVNILLFQNIDGKELCKMTKDDTQRLTPSYNADILLSHLHYLRE,-0.902 ± 0.32
13,NMTTNERRVIVPADPTLWSTDHVRQWLEWAVKEYGLPDVNILLFQNIDGKELCKMTKDDEQRLTPSYNADILLSHLHYLRE,-1.18 ± 0.39
14,NMTTNERRVIVPADPTLWSTDHVRQWLEWAVKEYGLPDVNILLFQNIDGKELCKMTKDDLQRLTPSYNADILLSHLHYLRE,-0.093 ± 0.061
15,NMTTNERRVIVPADPTLWSTDHVRQWLEWAVKEYGLPDVNILLFQNIDGKELCKMTKDDVQRLTPSYNADILLSHLHYLRE,-0.083 ± 0.054
16,NMTTNERRVIVPADPTLWSTDHVRQWLEWAVKEYGLPDVNILLFQNIDGKELCKMTKDDCQRLTPSYNADILLSHLHYLRE,-0.306 ± 0.11
17,NMTTNERRVIVPADPTLWSTDHVRQWLEWAVKEYGLPDVNILLFQNIDGKELCKMTKDDIQRLTPSYNADILLSHLHYLRE,0.074 ± 0.11

row,Variant,abundance fitness
1,NMTTNERRVIVPADPTLWSTDHVRQWLEWAVKEYGLPDVNILLFQNIDGKELCKMTKDDDQRLTPSYNADILLSHLHYLRE,-0.773 ± 0.41
2,NMTTNERRVIVPADPTLWSTDHVRQWLEWAVKEYGLPDVNILLFQNIDGKELCKMTKDDRQRLTPSYNADILLSHLHYLRE,-0.866 ± 0.14
3,NMTTNERRVIVPADPTLWSTDHVRQWLEWAVKEYGLPDVNILLFQNIDGKELCKMTKDDQQRLTPSYNADILLSHLHYLRE,-1.05 ± 0.35
4,NMTTNERRVIVPADPTLWSTDHVRQWLEWAVKEYGLPDVNILLFQNIDGKELCKMTKDDHQRLTPSYNADILLSHLHYLRE,-0.633 ± 0.41
5,NMTTNERRVIVPADPTLWSTDHVRQWLEWAVKEYGLPDVNILLFQNIDGKELCKMTKDDWQRLTPSYNADILLSHLHYLRE,0.017 ± 0.062
6,NMTTNERRVIVPADPTLWSTDHVRQWLEWAVKEYGLPDVNILLFQNIDGKELCKMTKDDMQRLTPSYNADILLSHLHYLRE,0.13 ± 0.089
7,NMTTNERRVIVPADPTLWSTDHVRQWLEWAVKEYGLPDVNILLFQNIDGKELCKMTKDDAQRLTPSYNADILLSHLHYLRE,-0.401 ± 0.08
8,NMTTNERRVIVPADPTLWSTDHVRQWLEWAVKEYGLPDVNILLFQNIDGKELCKMTKDDGQRLTPSYNADILLSHLHYLRE,-0.971 ± 0.12
9,NMTTNERRVIVPADPTLWSTDHVRQWLEWAVKEYGLPDVNILLFQNIDGKELCKMTKDDYQRLTPSYNADILLSHLHYLRE,-0.365 ± 0.2
10,NMTTNERRVIVPADPTLWSTDHVRQWLEWAVKEYGLPDVNILLFQNIDGKELCKMTKDDSQRLTPSYNADILLSHLHYLRE,-0.536 ± 0.15
11,NMTTNERRVIVPADPTLWSTDHVRQWLEWAVKEYGLPDVNILLFQNIDGKELCKMTKDTFQRLTPSYNADILLSHLHYLRE,0.059 ± 0.13
12,NMTTNERRVIVPADPTLWSTDHVRQWLEWAVKEYGLPDVNILLFQNIDGKELCKMTKDQFQRLTPSYNADILLSHLHYLRE,-0.04 ± 0.12
13,NMTTNERRVIVPADPTLWSTDHVRQWLEWAVKEYGLPDVNILLFQNIDGKELCKMTKDNFQRLTPSYNADILLSHLHYLRE,-0.24 ± 0.13
14,NMTTNERRVIVPADPTLWSTDHVRQWLEWAVKEYGLPDVNILLFQNIDGKELCKMTKDKFQRLTPSYNADILLSHLHYLRE,-0.199 ± 0.12
15,NMTTNERRVIVPADPTLWSTDHVRQWLEWAVKEYGLPDVNILLFQNIDGKELCKMTKDHFQRLTPSYNADILLSHLHYLRE,-0.244 ± 0.24
16,NMTTNERRVIVPADPTLWSTDHVRQWLEWAVKEYGLPDVNILLFQNIDGKELCKMTKDAFQRLTPSYNADILLSHLHYLRE,0.068 ± 0.078
17,NMTTNERRVIVPADPTLWSTDHVRQWLEWAVKEYGLPDVNILLFQNIDGKELCKMTKDFFQRLTPSYNADILLSHLHYLRE,-0.538 ± 0.31
